IC50 and percent of radiolabeled peptide bound data for three molecules are collected here from patent US20070055049A1.

Assay [1] addresses HLA-A*0201 (human). Kind of assay: competitive inhibition, purified HLA-A2.1, reference peptide.
The target in a further assay is HLA-A*0203 (human). As to the kind of experiment: competitive inhibition of the radiolabeled peptide, purified HLA, average.
Assay [2] has as its target HLA-A*0201 (human). Described as above.
The target in assay [3] is HLA-A*0201 (human). Kind of assay: competitive inhibition, purified HLA-A2.1, standard reference peptide.
Assay [4] addresses HLA-A*0201 (human). Kind of assay: competitive inhibition, purified HLA-A2.1.
The target in assay [5] is HLA-A3.2 (product of the A*0301 gene) (human).
Assay [6] addresses HLA-A*0201 (human). Kind of assay: inhibition curve with unlabeled peptide, purified A2.1. The note with it: remark: other sources report otherwise.
Assay [7] addresses HLA-A*0201 (human). The note with it: remark: other sources report otherwise.

Broadly, the IC50 is the concentration needed to halve the response being measured. A lower IC50 goes with inhibition by little substance.

Turning to FLPSDYFPSV (modifications not checked) [HBV core 18-27 F6>Y analog peptide], the IC50 in the assay with HLA-A*0201 (human) [1] was 5 nM; with HLA-A*0203 (human), 10 nM; with HLA-A*0201 (human) [2] it was 5 nM; in the assay with HLA-A*0201 (human) [3], 5 nM.

Molecule YMDDVVLGA (modifications not checked) [HBV pol 538 peptide] displayed an IC50 with HLA-A*0201 (human) [4] of 200 nM.

FLPSDFFPSV (modifications not checked) [HBc 18-27 peptide, P03146 18-27]: the IC50 in assay [5] was more than 30000 nM; in the assay with HLA-A*0201 (human) [6], 25 nM. Further, in the assay with HLA-A*0201 (human) [7], the percent of radiolabeled peptide bound worked out at 95%.
